Data from the DeepSol protein solubility set.

assay: soluble on expression in E. coli; label from the status in PepcDB or PDB records

Sequence	soluble on expression in E. coli
MCFRTENGDFFGWEGVENTVGCGAGTCTHVWNYAQTVAFLFPELEQSMRRIEFLQETQADGYMPFRTYRPFGLPAWEMLPSADGQLGAVVRLYREWRLSGDNRLIEDCWDGVVRSMEYAIRTWDTDGDFVPDSAQHVTYDTELYGMTSMVSTLFFAALIAAAEMAEYMGDQERARRYRDGAEKGAKLMDEKCWNGEYYIQLIDDVDKYRYQYGKGCLSDQLLGQFLAQEAGLGYVLPKNHVKKAAESIFRYNFIERASDFGHVQRAYIFNDEMGLTPCTWPLGERPRFPFIYFGEVWTGIEYEVAALLIREDLLEEGLTIVKAVRDRQDGYRRNPWSENESGYYYTRAMASYSILNALSGFSCDQRKNQMSFQPKLNQDNFRCFWCNGKSWGIFSQKKEKGEIRQELQVLYGEKDVSVINLEHHHHHH	not soluble
LSCLTPDNKPGKCVNIKKCTHLAEIEEDPIGEDETTYLKNSVCAGPEDNSVCCG	soluble
MKFLELNKKRHATKHFTDKLVDPKDVRTAIEIATLAPSAHNSQPWKFVVVREKNAELAKLAYGSNFEQVSSAPVTIALFTDTDLAKRARKIARVGGANNFSEEQLQYFMKNLPAEFARYSEQQVSDYLALNAGLVAMNLVLALTDQGIGSNIILGFDKSKVNEVLEIEDRFRPELLITVGYTDEKLEPSYRLPVDEIIEKR	soluble
MNQLLINKHEKFFNRCLIGLPSTAQSEDSNKLAIIYFCLHGLQLIQKFQFTNQELIYYRNFIINQFMIENNQIISFRSTHYFQKTNQKYDCPNLSSTLFALYNLLILKSPYHTIINRKKIMNFLCKCQVKDGINKGGFVPTLYYNEENGDYKQYGEPDLRVCYMALLIRHLMKYDDNNNNNNREDSNETDIDLISLQQFILDRININGGFSSTIMDESHLGFTFCAIASLKLLNYPLEKLKSTKEWLIHRQVDYPENLYPKDGNGDGNGNGDNYEYYRNIDIGGFNGRENKLSDTCYSWWCTGSLYNIDVNFIKLVDLNKAEDYLLNKTQNQLFGGFGRDPDSTPDPMHSYLALASLSLWNHEKFALQEINPILTITKESYQFFKEEIKY	soluble
MGSDKIHHHHHHMSILNLFRKNKNKNNIDFNEKSNKSKQTSNNTMTPSQEYNSISTHNVEVKNEINKVLNVSYNDTTNLYELEKQAREKSDALYDIHTNSINKFNPQNNILETDTKPLTSIEKSFLKYIIGENIYEPYIATYWTYEYNINYSYLISKFFNMDYLKISNYIEDLTKLTVSELKEILKSNNIKSTGKKAELIERIEKEISCKDLSNFFNSSNKYYALTDKGKELLKDVRKSVTKNTDLEDQCLELIYIDKYEEAYDLICKYESSKNIQRGININWENHKITPMKIESYKAIKELDINLKDTLLDNIIKSSYILCDMLGNNSKTSILVKRLAGEKIDNIEINNAINSINDVIYNHSTITYNANDSINNKNLHYMDIVKNNKSIPFEVNNKNYNFKINENEIYFFNILKIKMYENELKNNFVFDRMSDGAFNVFDTSDNFIGKVKLQGRKKWIMYMKNEFGSEHIYGELIHLIDGIDAWIKYSKEYLK	not soluble
DNFNQQKKKFGGQDIFMTEEQKKYYNAMKKLGSKKPQKPIPRPANKFQGMVFD	soluble
MARDGAVYACQSCGAVQTKWSGQCSACQSWNTLVEEVSAKPPGALSATKATRVRGLQFTGLESETAPPPRILTGVDEFDRVCGGGVVPGSALLIGGDPGVGKSTLLLQVCASAAARGVSCAYISGEEAVEQIRGRADRMGLAKANVSLAAETALRDILDGLKRDNFDLVVIDSIQTMWSDAHEAGPGTVTQVRACATELVRLAKKKGVAILLVGHVTKDGQIAGPRVVEHLVDAVLSFEGERGYPFRILRGAKNRFGATDEIGVFEMGDVGLREVKNPSALFLNEGGERAAGAAVFAGIEGSRPVLVEFQALVAPSAYGTPRRAVVGWDSGRLAMVLAVLEARCGLGFGDKDVYLNVAGGLRITEPAADLAAAAALASSALDVALPQDCVVFGELSLSGEVRPVSRMETRLKEAAKLGFGRALGPLAGLPEGGGALPVAGVARLTDAVRRIGDEIWTSLT	soluble
SVRCYVEIVEKLPERRPDPATIEGCAQLKPNNYLLAWHTPFNEKGSGFGAATKAMCIGLRYWKPERLETLIEVSVECGRMTHNHPTGFLGSLCTALFVSFAAQGKPLVQWGRDMLRAVPLAEEYCRKTIRHTAEYQEHWFYFEAKWQFYLEERKISKDSENKAIFPDNYDAEEREKTYRKWSSEGRGGRRGHDAPMIAYDALLAAGNSWTELCHRAMFHGGESAATGTIAGCLFGLLYGLDLVPKGLYQDLEDKEKLEDLGAALYRLSTEEK	soluble
YIYRLGKEKEKNDRLIQSITINQMEARQNEEIINSTHSLRVFKHDIMNHMSILYKLVENGKNSDALKYIYQINNSIERTSYTISTGIIPIDCIMTAKLSKALDNNISIKHQIHFPANYNISDMDLCSLISNLLDNAIEANCKLDMTKRRLQIEIKPYNNMLLLFISNSSNGIYLYGGNGNLLTTKTSNKNEHGIGIKRINEIVKKYNGIIEFDPGTEIFSVSILFPLDN	not soluble
YCTLDDLILSFGQDEIYRLIATDQEAEKALDDAQAEIDMYLSDRYALPVKSVPKSLNRIACDIAHYYLYNSVDEDSTVYLRYKHRIKQLSDVAAGKLSLGLYDKSDDATTDNQVVFIKSSKKVFAR	not soluble
MRVLFIGDVFGQPGRRVLQNHLPTIRPQFDFVIVNMENSAGGFGMHRDAARGALEAGAGCLTLGNHAWHHKDIYPMLSEDTYPIVRPLNYADPGTPGVGWRTFDVNGEKLTVVNLLGRVFMEAVDNPFRTMDALLERDDLGTVFVDFHAEATSEKEAMGWHLAGRVAAVIGTHTHVPTADTRILKGGTAYQTDAGFTGPHDSIIGSAIEGPLQRFLTERPHRYGVAEGRAELNGVALHFEGGKATAAERYRFIED	soluble
MNKDVSLGQPIVRYEDGKLFNTTDQYVTEFPLTIMVNGEEFATVICSPTNLEELVIGFLASEGAILKRDELKSVLIDDSKGFAHVELNKDLGDRFQYSTKRMIASCCGKSREFYFQNDAAIAKTSMSKITLTPIQIINMMTRLQSASHIYQETGGLHNAAISDGLTFFVHRQDIGRHNALDKLYGFCIQRHITVRDKVLIFSGRISSEILIKAAKIGVGVILSKSAPTTLAVTLANDLNITAVGFIRNGGFNIYSHPERIIDSEQ	not soluble
TDKPRHRFFDAETEALYARLARALPGYDFALQGWNRDEDTFIVAAYNDRTPGSRYLYDARRDSLHKLADINPAIPEADMAPVRPVSYQSRDGLTIHGYLTLPAGRAPRNLACIVNPHGGPWARDGWGYNPEVQFLANRGFCVLQMNFRGSTGYGRKFWEAGFGQWGLKMQDDITDGVQWLIDQGIADPRRIGIYGGSYGGYATLAGVAFTPDLYAAAVDYVGVSNLFTFMNTIPPYWKPLLAKMQDMVGDPVRDKARLEATSPALHVDRIKTPLFIAQGAKDPRVNKAESDQVVQALRQRGVEVEYMVKDNEGHGFHNDENKFEFYAAMEKFFTEHLK	not soluble
MSLSLESLEWMAFDSFLLWRSEESIDARILLVEINQNDNYSLTSTISNSSFIGVIEKLQVYQPKVIGLEVDQHLLINSQEDKLAKIFQKYKNLIANEKILPLQVHSYLDLPNEQITFADQILDNDGKSRRSLLAINTSNGYKLSLAMELARIYLAEKNISLENSRLGKTKLPRFLPNSGGYIRADASGFQVLINFRSGNQRFRTLSGEDIKNGKFNPEWIRDRIVIIGITNTHNQGFIPTSAITSVKSASTQVNKLEIQAHAISQIISAVLDGRPLINTWNDGEGHHHHHH	not soluble
MSLAAGKHTKHSNRVRIIGGQCRGRKLSFTSADGLRPTPDSVREKLFNWLGQDLTGKTVLDLFGGSGALGIEAASRNAKRVLISDNNRQTVQTLQKNSRELGLGQVQIVFSDGIAYLKTVSEQFDVVFLDPPFAWQDWQILFDALKPCLNPRAFVYLEAGTLPNIPDWLTEYREGKSGQSTFELRVFQVAEEGHHHHHH	soluble
MTDQATPNLPSRDFDSTAAFYERLGFGIVFRDAGWMILQRGDLMLEFFAHPGLDPLASWFSCCLRLDDLAEFYRQCKSVGIQETSSGYPRIHAPELQGWGGTMAALVDPDGTLLRLIQNELLAGIS	soluble
MGVFAQNLKFGHINAQEIVSAMPEFAKAQSDIEALDKQLTSELQRTQEEFNKKYQEFQQAIAKDSLPANIAERRQKELQDMMQRQEQFQQEAQQQMQKAQADAMAPIYKKLDDAIKAVGAAEGVIYIFDLARTPVAYVNESQSINLTPKVKTQLGIK	not soluble
MPIITKNTDTTCQTPPLLSIICPAYNQEAFVAQALDGFLSQQTRFNYEILINDDASTDGTARIIAQYAERHPTIIRAFYQQVNQYSQGLPCVPDLFAEARGRYIAYCEADDYWTDPRKLQLQVDFLESHPDYVITYHDAVAFDENGEYGVQLQGHLRADATALELQQARRLSTLTTCFRNVFSTMPPELNIRVAPLNDMCWWSLLGAHGKGKFMADIKPAAYRLHAGGVFSMRSDKRKLHMNLQTCSSLANYYNLQGNQALYEYFLMQTVCLSLAALTPSHKLQTLWQVASNVVVNLGRRLLPTTGKAHVQ	not soluble
MAHHHHHHMDTRGLRHLKSYLGKEGEQLARAKRASDVVPVLAARQAAAAAAARATAADVTTVSNTVPAPLSPSVMKYLGGRLASGATHKLSRTQMALAAALAAPGAPSTRGHAEGSENGETALAVTRAKVADMAAAVDTLAVSALELAARRAAEDTEARRSTAESSSLFVLVDTSSEAAEVAGQLEGRYGLTVLLLRDDNACRHPTFPSPASRAGVSTLRGTTSKTPAAERRKTKSNSRTVDEVAPKDEATESTPALAGAVVVVVATPAAFLAVDRRSAIWKFIGSCALLLRRAPTHTGSLLHTLKGIKAAASSSPTKTTPHALNAQRWACIGHVPAIAVLAAEQKWLTEPELDLLTTLRVERHVGSGVGVVSKSTEASVSSAVAALRAPVTVHYAVAQGTHRFQFLFGLLKGLAPHRGIVVHVATRECVAFLYDTLYSLVGELPSHVQLLSDYEGASAYTNMHTTADRQRLCVAFDSTVESGQNGKTAAVLLSCHGLVPRRGSVFLQYDVIPDLLNYNQFIAEVLSPGAVAADAGNDAGGTAPSAAAEVAVRRERMARRRKRSTSPTPAPVAARRVGADAANSAADASSGSKAAIPAAVNYTHILLLFRPNEVAGALRHLRRDGASRYRLEFRELGPRAGGRYFLIGEKLKSMNKKLFPVQNAAYDAYKATMRTYSTIGPRDVYDETKVSLEKVAEEFGYTELPLLDLRLKDTVFRPKEDYYRAARQKQDAERRAYKAFVQGNIVGESPEEHVADSVA	soluble
MSLNETYMMITFQSGMDYWKRCLKGFEDAAQALNVTVEYRGAAQYDIQEQITVLEQAIAKNPAGIAISAIDPVELTDTINKAVDAGIPIVLFDSGAPDSHAHSFLGTNNYNAGMNAAYKMAELLDGEGEVAVITLPNQLNHQERTTGFKETLEAEFPAIEVIAVEDGRGDSLHSRRVAHQLLEDYPNLAGIFATEANGGVGVGDAVRLESRAGEIQIISFDTDKGTLDLVDEGIISATLAQGTWNMGYWSLTYLFHLHHGLTEPQILQTREEAPLPLYVDTGITIVTDENVDYYYADEGHHHHHH	soluble
RLAVGDEITAAGELLAGGKILAIKGIGGFHLAVDASNEAAVRRLRSRKGREEKPFAVMVRDLAAARALCDISPEEKAALASPQAPIVLLRARQGLSLAPSIAPGNDRLGVMLPYSPLHWLLLREGPKVLVMTSANFSEEPLVADNAEALERLAGIADAFLMHDRPIARRCDDSVVMSMAGAVRLIRRSRGYAPAPVRLAES	not soluble
MTEVNAFADTPWRAGVIQDFARSELFDRTFEEGMQLVEETAAYLDGAGRHDSKVLSRNAALGYATESMRLTTRLMQVASWLLVQRAVREGEMPPEAACAEAYRLAEEAPADGPAVEELPFGLMNLLQRSERLYERVRHLDRRMYVESPNEEAPRPVQNQLDRLTAAFGG	soluble
